Two molecules from patent US20090053225A1 (QUARK PHARMACEUTICALS, published 2009) can be followed below.

In experiment [1] the target is T1, CD55 purified from human erythrocytes (human, UniProt P08174 35-353).
T1 construct: mature; Native protein purified from red cells; coated on plates for ELISA, or incubated with antibody-sensitised sheep erythrocytes (EA-CD55) for the hemolytic assay; also called decay-accelerating factor; DAF
T1 sequence (looked up): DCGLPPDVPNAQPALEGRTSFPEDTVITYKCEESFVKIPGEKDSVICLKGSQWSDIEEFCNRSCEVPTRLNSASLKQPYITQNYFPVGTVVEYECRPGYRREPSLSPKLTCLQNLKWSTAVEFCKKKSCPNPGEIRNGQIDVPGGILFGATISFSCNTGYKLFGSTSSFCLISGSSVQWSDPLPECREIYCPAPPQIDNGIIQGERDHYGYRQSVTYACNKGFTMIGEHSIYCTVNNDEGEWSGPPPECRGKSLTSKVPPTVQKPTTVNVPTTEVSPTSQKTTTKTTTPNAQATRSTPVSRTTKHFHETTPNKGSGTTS
The experiment in a line: ELISA with phage and soluble scFv on coated purified antigen. Here is the method: (§1) Microtiter plates were coated with 100 μl of the various CRPs (10 μg/ml) followed by 100 μl of phage suspension in MPBS. Anti-M13 peroxidase conjugated mAb was used as a secondary antibody. Data represent mean values±SD of three different experiments.
(§2) The specificity of the selected clones was assessed by ELISA using both phage and soluble scFv (FIG. 1).

The target in experiment [2] is T2, CD59 purified from human erythrocytes (human, UniProt P13987 26-102).
T2 construct: mature; Native protein purified from red cells; coated on plates for ELISA, or incubated with guinea pig erythrocytes (GPE-CD59) for the reactive lysis test
T2 sequence (looked up): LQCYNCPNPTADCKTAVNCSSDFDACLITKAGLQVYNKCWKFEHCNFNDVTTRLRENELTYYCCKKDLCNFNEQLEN
The description is as above. On the procedure:
as §1, §2

B1: scFv TS-59 (anti-CD59 clone) (scFv)
scFv: DIVLTQSPDSLAVSLGERATINCKSSQSVLYSSNNKNYLAWYQQKPGQPPKLLIYWASTRESGVPDRFSGSGSGTDFTPAISSLQAEDVAVYYCQQYYSTPQLTFGGGTKVDIKSGGSTITSYNVYYTKLSSSGTQVQLQQSGGGVVQPGRSLGLSCAASGFTFSSYGMNWVRQAPGKGLEWVSYISSSSSTIYYADSVKGRFTISRDNSKNTLYLQMNSLRAEDTAVYYCARGPGMDVWGQGTTVTVS
notes: also called Clone anti CD 59; anti-CD59 scFv
As for B1, the binding result in experiment [1] is on record as “no binding”.

B2: scFv TS-55 (anti-CD55 clone) (scFv)
scFv: SSELTQEPAVSVALGQTVSITCQGDSLRSYYASWYQQKPGQAPIPVIYGKNNRPSGIPDRFSGSSSGNTASLTITGAQAEDEADYYCSSRDNRGTHRWVFGGGTKLTVLSGGSTITSYNVYYTKLSSSGTQVNLRESGGGLVQPGRSLRLSCAASGFTFDDYAMHWVRQAPGKGLEWVSGISWNSGSIGYADSVKGRFTISRDNAKNSLYLQMNSLRAEDTALYYCAKDRSDRGRLLDYWGLGTLVTVS
notes: also called Clone anti CD 55; anti-CD55 scFv
For B2, the binding result in experiment [2] is given as “no binding”.
